Laboratory results: paper PMC12754632, “ZapA uses a two‐pronged mechanism to facilitate Z ring formation in Escherichia coli” (mLife, 2025)

Tests used:
[1] = target: the molecule itself; test: sedimentation of polymers; FtsZ variants (5 μM) in Pol buffer with 10 mM CaCl2 and 2.5 mM GTP, room temperature, ultracentrifugation at 100,000 rpm for 15 min at 25°C; polymerization of FtsZ with itself
FtsZ^D212N = target: T1, FtsZ^D212N (Escherichia coli, UniProt P0A9A6 1-383, D212N); test: pull-down; H-SUMO-ZapA (6 μM) and FtsZ (2 μM) in Pol buffer (50 mM HEPES-NaOH pH 6.8, 50 mM KCl, 10 mM MgCl2), GTP in the buffers throughout, held on Ni-NTA agarose, washed with 500 mM NaCl and 20 mM imidazole, eluted with 250 mM imidazole; fractions on SDS-PAGE; details: both partners purified
T1 construct: also called GTPase mutant (FtsZ^D212N); source: E. coli BL21/pLys, purified (Ni-NTA; His-SUMO tag cleaved with Ulp1); not shown: His-SUMO, N-terminal, cleaved
T1 sequence (looked up): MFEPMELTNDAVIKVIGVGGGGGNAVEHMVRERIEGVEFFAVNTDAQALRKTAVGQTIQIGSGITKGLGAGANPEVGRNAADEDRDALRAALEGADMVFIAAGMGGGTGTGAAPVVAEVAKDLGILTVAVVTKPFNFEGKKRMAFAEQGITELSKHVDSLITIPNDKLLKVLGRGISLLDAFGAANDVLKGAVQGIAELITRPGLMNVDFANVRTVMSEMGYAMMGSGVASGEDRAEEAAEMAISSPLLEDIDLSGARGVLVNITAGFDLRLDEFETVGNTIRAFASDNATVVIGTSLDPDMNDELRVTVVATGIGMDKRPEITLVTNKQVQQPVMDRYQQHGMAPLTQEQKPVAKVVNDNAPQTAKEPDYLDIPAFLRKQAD

wild-type FtsZ = target: T2, wild-type FtsZ (Escherichia coli, UniProt P0A9A6 1-383); test: co-sedimentation; FtsZ or variants (5 μM) with or without equal molar untagged ZapA, 2.5 mM GTP, no Ca2+, room temperature 5 min, ultracentrifugation; pellets and supernatants on SDS-PAGE; 50 mM HEPES pH 6.8, 10 mM MgCl2, 200 mM KCl (legend of Figure 4A); details: both partners purified
T2 construct: FtsZ, Escherichia coli; Forms filaments with GTP; GTP was present in the pull-down and the sedimentation assays; source: E. coli BL21/pLys, purified (Ni-NTA; His-SUMO tag cleaved with Ulp1); not shown: His-SUMO, N-terminal, cleaved
T2 sequence (looked up): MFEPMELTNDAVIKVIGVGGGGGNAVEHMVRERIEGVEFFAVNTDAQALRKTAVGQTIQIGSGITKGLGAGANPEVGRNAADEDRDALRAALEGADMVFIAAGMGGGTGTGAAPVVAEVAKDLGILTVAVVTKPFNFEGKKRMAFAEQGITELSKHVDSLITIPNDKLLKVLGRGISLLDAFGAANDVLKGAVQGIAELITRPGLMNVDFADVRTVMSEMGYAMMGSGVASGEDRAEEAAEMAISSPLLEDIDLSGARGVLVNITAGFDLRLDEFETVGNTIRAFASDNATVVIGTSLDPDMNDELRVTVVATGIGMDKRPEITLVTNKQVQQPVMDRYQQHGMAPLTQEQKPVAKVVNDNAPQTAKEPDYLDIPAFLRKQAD

B1: FtsZ^F2A (natural protein, Escherichia coli, UniProt P0A9A6 1-383, looked up)
chain: MAEPMELTNDAVIKVIGVGGGGGNAVEHMVRERIEGVEFFAVNTDAQALRKTAVGQTIQIGSGITKGLGAGANPEVGRNAADEDRDALRAALEGADMVFIAAGMGGGTGTGAAPVVAEVAKDLGILTVAVVTKPFNFEGKKRMAFAEQGITELSKHVDSLITIPNDKLLKVLGRGISLLDAFGAANDVLKGAVQGIAELITRPGLMNVDFADVRTVMSEMGYAMMGSGVASGEDRAEEAAEMAISSPLLEDIDLSGARGVLVNITAGFDLRLDEFETVGNTIRAFASDNATVVIGTSLDPDMNDELRVTVVATGIGMDKRPEITLVTNKQVQQPVMDRYQQHGMAPLTQEQKPVAKVVNDNAPQTAKEPDYLDIPAFLRKQAD
notes: FtsZ, Escherichia coli; source: E. coli BL21/pLys, purified (Ni-NTA; His-SUMO tag cleaved with Ulp1); not shown: His-SUMO, N-terminal, cleaved
Does B1 bind [1]?
Result: binds

B2: H-SUMO-ZapA (natural protein, Escherichia coli, UniProt P0ADS2 1-109, looked up)
chain: MSAQPVDIQIFGRSLRVNCPPDQRDALNQAADDLNQRLQDLKERTRVTNTEQLVFIAALNISYELAQEKAKTRDYAASMEQRIRMLQQTIEQALLEQGRITEKTNQNFE
notes: ZapA, Escherichia coli; Held on Ni-NTA agarose by the His tag in the pull-down; source: E. coli BL21 (DE3)/pLys, purified (Ni-NTA); not shown: His, N-terminal, kept; SUMO, N-terminal, kept
Does B2 bind (FtsZ^D212N)?
Result: binds

B3: untagged ZapA (natural protein, Escherichia coli, UniProt P0ADS2 1-109, looked up)
chain: MSAQPVDIQIFGRSLRVNCPPDQRDALNQAADDLNQRLQDLKERTRVTNTEQLVFIAALNISYELAQEKAKTRDYAASMEQRIRMLQQTIEQALLEQGRITEKTNQNFE
notes: ZapA, Escherichia coli; source: E. coli BL21 (DE3)/pLys, purified (Ni-NTA; His-SUMO tag cleaved with Ulp1); not shown: His-SUMO, N-terminal, cleaved
Does B3 bind (wild-type FtsZ)?
Result: binds
